The source of these data is PMC5828407 (2018).

B1: peptide F4ac 200–218 [modified: FITC-Ahx on the N-terminus; FITC-Ahx on the N-terminus] [Escherichia coli] / porcine aminopeptidase N (APN), His-tagged whole protein [porcine] (parent complex)
chain 1: TKLFGSLSRNDILGQIQRV
chain 2: MAKGFYISKALGILGILLGVAAVATIIALSVVYAQEKNKNAEHVPQAPTSPTITTTAAITLDQSKPWNRYRLPTTLLPDSYNVTLRPYLTPNADGLYIFKGKSIVRLLCQEPTDVIIIHSKKLNYTTQGHMVVLRGVGDSQVPEIDRTELVELTEYLVVHLKGSLQPGHMYEMESEFQGELADDLAGFYRSEYMEGNVKKVLATTQMQSTDARKSFPCFDEPAMKATFNITLIHPNNLTALSNMPPKGSSTPLAEDPNWSVTEFETTPVMSTYLLAYIVSEFQSVNETAQNGVLIRIWARPNAIAEGHGMYALNVTGPILNFFANHYNTSYPLPKSDQIALPDFNAGAMENWGLVTYRENALLFDPQSSSISNKERVVTVIAHELAHQWFGNLVTLAWWNDLWLNEGFASYVEYLGADHAEPTWNLKDLIVPGDVYRVMAVDALASSHPLTTPAEEVNTPAQISEMFDSISYSKGASVIRMLSNFLTEDLFKEGLASYLHAFAYQNTTYLDLWEHLQKAVDAQTSIRLPDTVRAIMDRWTLQMGFPVITVDTKTGNISQKHFLLDSESNVTRSSAFDYLWIVPISSIKNGVMQDHYWLRDVSQAQNDLFKTASDDWVLLNVNVTGYFQVNYDEDNWRMIQHQLQTNLSVIPVINRAQVIYDSFNLATAHMVPVTLALDNTLFLNGEKEYMPWQAALSSLSYFSLMFDRSEVYGPMKKYLRKQVEPLFQHFETLTKNWTERPENLMDQYSEINAISTACSNGLPQCENLAKTLFDQWMSDPENNPIHPNLRSTIYCNAIAQGGQDQWDFAWGQLQQAQLVNEADKLRSALACSNEVWLLNRYLGYTLNPDLIRKQDATSTINSIASNVIGQPLAWDFVQSNWKKLFQDYGGGSFSFSNLIQGVTRRFSSEFELQQLEQFKKNNMDVGFGSGTRALEQALEKTKANIKWVKENKEVVLNWFIEHS
B2: peptide F4ad 200–218 [modified: FITC-Ahx on the N-terminus; FITC-Ahx on the N-terminus] [Escherichia coli] / porcine aminopeptidase N (APN), His-tagged whole protein [porcine] (parent complex)
chain 1: ARTELFGSLSKNDILGQIQ
chain 2: B1 chain 2
B3: peptide F4ab 148–160 [modified: FITC-Ahx on the N-terminus; FITC-Ahx on the N-terminus] [Escherichia coli] / porcine aminopeptidase N (APN), His-tagged whole protein [porcine] (parent complex)
chain 1: NASYAGVFGKGGV
chain 2: B1 chain 2

Variants of B1 are the subject of one assay. The experiment in a line: ELISA; parent: 29; read off a plot. (In general: ELISA stands for enzyme-linked immunosorbent assay.)
Take chain 1 TKLFGSLARNDILGQIQRV: the response was ~27 relative value APN/PBS at 450 nm.
With chain 1 TKLFGSLSRNDILAQIQRV, the response was ~6.5 relative value APN/PBS at 450 nm.
Consider chain 1 TKLFGSLSRNDIAGQIQRV, for which the response was ~13 relative value APN/PBS at 450 nm.
Still for that read-out and setting: as for chain 1 TKLFASLSRNDILGQIQRV, the figure is ~20 relative value APN/PBS at 450 nm; as for chain 1 TKLFGSASRNDILGQIQRV, ~6.5 relative value APN/PBS at 450 nm; as for chain 1 TKLFGSLSRADILGQIQRV, ~15 relative value APN/PBS at 450 nm.
For chain 1 TALFGSLSRNDILGQIQRV, the response is ~48 relative value APN/PBS at 450 nm.
On the same count and under the same terms, as for chain 1 TKLFGSLSRNDILGQIQAV, the figure is ~6.5 relative value APN/PBS at 450 nm; as for chain 1 TKAFGSLSRNDILGQIQRV, ~73 relative value APN/PBS at 450 nm.

Variants of B2 are the subject of the next assay. The experiment in a line: ELISA; parent: 55; read off a plot.
Regarding chain 1 ERTELFGSLSKNDILGQIQ, the response was ~53 relative value APN/PBS at 450 nm.

In a further assay the parent is B3. Description: ELISA; parent: 30; read off a plot.
Consider chain 1 NASYAGVFGKGAV, for which the response is ~28 relative value APN/PBS at 450 nm.
